The values below come from patent publication US20230265169A1 (US Dept. of Health and Human Services, published 2023).

For assay [1], the target named is MERS-CoV full-length spike trimer antigen (amino acids 1 to 1275 of the spike protein, lacking the … (MERS-CoV, UniProt K9N5Q8 18-1275)).
Assay [2] has as its target MERS-CoV RBD antigen (receptor binding domain, amino acids 377 to 588 of the spike protein) (MERS-CoV, UniProt K9N5Q8 377-588).
Assay [3] has as its target MERS-CoV S1 antigen (S1 domain, amino acids 1 to 757 of the spike protein) (MERS-CoV, UniProt K9N5Q8 18-757).
The target of assay [4] is T1, MERS-CoV spike protein on live MERS-CoV (EMC, KNIH-002, KNIH-016 and KNIH-042 strains) (MERS-CoV).
T1 chain: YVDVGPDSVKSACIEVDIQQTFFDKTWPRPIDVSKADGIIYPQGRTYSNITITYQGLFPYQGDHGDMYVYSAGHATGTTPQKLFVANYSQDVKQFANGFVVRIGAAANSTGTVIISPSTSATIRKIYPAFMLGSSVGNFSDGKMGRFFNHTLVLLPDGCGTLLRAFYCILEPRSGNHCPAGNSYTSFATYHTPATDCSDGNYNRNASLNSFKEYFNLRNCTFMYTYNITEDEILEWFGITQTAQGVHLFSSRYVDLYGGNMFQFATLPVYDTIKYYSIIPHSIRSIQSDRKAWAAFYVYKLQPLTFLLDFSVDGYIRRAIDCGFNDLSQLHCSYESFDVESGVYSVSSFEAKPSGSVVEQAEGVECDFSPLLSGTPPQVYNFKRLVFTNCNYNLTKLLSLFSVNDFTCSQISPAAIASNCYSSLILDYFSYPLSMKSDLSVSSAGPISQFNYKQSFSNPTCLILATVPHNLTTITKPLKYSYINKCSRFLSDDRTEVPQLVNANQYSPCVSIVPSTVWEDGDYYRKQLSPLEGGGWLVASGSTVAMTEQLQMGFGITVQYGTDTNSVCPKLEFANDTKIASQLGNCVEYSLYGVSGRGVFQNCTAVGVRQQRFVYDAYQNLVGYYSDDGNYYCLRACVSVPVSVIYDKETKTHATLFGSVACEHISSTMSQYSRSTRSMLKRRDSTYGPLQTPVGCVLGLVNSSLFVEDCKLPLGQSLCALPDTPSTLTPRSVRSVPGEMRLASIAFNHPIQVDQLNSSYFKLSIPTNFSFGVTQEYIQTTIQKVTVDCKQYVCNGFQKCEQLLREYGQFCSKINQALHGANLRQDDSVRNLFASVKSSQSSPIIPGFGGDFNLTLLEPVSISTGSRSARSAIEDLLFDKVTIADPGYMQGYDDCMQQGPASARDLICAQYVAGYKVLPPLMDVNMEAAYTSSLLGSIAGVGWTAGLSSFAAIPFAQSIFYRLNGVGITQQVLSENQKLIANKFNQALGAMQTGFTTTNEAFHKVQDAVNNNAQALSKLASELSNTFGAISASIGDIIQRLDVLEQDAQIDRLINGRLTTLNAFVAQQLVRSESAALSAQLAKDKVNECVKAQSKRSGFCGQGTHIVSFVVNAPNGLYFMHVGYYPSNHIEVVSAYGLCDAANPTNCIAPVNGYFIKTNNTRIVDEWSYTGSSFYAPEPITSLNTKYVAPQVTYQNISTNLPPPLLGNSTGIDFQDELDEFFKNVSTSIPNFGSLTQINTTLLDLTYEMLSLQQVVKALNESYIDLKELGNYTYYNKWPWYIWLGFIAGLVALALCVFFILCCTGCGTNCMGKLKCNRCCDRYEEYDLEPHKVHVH
Description: cell-based or functional assay. Further details: ND50 (PRNT with MERS-CoV): unit not given beside the values.

B1: 90-E5 antibody (antibody, V domains shown)
VH: QVQLVQSGAEVKKPGSSVKVSCKASGGTFSSYTINWVRQAPGQGLEWMGGIIPIFGTANYAQKFQGRVTITADASTSTAYMELSSLRSEDTAVYYCARVLLRSSSWFSSNWFDPWGQGTLVTVSS
VL: QSVLTQPPSVSGAPGQRVTISCTGSSSNIGAGYDVHWYQQLPGTAPKVLIYGNSNRPSGVPDRFSGSKSDTSASLAITGLQAEDEADYYCQSYDSSLSVVFGGGTKLTVLG
As for B1, the concentration for a half-maximal effect (EC50 (read off the curve)) is roughly 0.01 µg/mL in assay [1], roughly 0.07 µg/mL in assay [2] and roughly 0.03 µg/mL in assay [3]. In addition, in assay [4], the “ND50 (PRNT with MERS-CoV)” value stood at 6.6. In assay [4], the “ND50 antibody conc. (PRNT with MERS-CoV)” value amounted to 1.51 µg/mL.

As usually defined, the EC50 (read off the curve) is the concentration that produces a half-maximal response.
